Reference: patent US20120208867A1

Key:
[1] = target: TLR-2 in which His-tag was added to the N-terminus (His-tag-added TLR-2); experiment: pull-down of HMGB1 (2 ug) with His-tag-added TLR-2 (2 ug) on Co2+ agarose beads, Western blot with anti-HMGB1 antibody; tRNA added, in the presence of 4 ug of RNA aptamer R8c6_1-18 as inhibitor
[2] = target: TLR-2 in which His-tag was added to the N-terminus (His-tag-added TLR-2); experiment: pull-down of HMGB1 (2 ug) with His-tag-added TLR-2 (2 ug) on Co2+ agarose beads, Western blot with anti-HMGB1 antibody; tRNA added, in the presence of 1 ug of RNA aptamer R8c6_1-18 as inhibitor
[3] = target: TLR-2 in which His-tag was added to the N-terminus (His-tag-added TLR-2); experiment: pull-down of HMGB1 (2 ug) with His-tag-added TLR-2 (2 ug) on Co2+ agarose beads, Western blot with anti-HMGB1 antibody; tRNA added, in the presence of 2 ug of RNA aptamer R8c6_1-18 as inhibitor
[4] = target: TLR-2 in which His-tag was added to the N-terminus (His-tag-added TLR-2); experiment: pull-down of HMGB1 (2 ug) with His-tag-added TLR-2 (2 ug) on Co2+ agarose beads, Western blot with anti-HMGB1 antibody; tRNA added, in the presence of 4 ug of 40N RNA library (comparative example)
[5] = target: TLR-2 in which His-tag was added to the N-terminus (His-tag-added TLR-2); experiment: pull-down of HMGB1 (2 ug) with His-tag-added TLR-2 (2 ug) on Co2+ agarose beads, Western blot with anti-HMGB1 antibody; lane '-': no tRNA, no RNA aptamer
[6] = target: TLR-2 in which His-tag was added to the N-terminus (His-tag-added TLR-2); experiment: pull-down of HMGB1 (2 ug) with His-tag-added TLR-2 (2 ug) on Co2+ agarose beads, Western blot with anti-HMGB1 antibody; tRNA added, in the presence of 1 ug of 40N RNA library (comparative example)
[7] = target: TLR-2 in which His-tag was added to the N-terminus (His-tag-added TLR-2); experiment: pull-down of HMGB1 (2 ug) with His-tag-added TLR-2 (2 ug) on Co2+ agarose beads, Western blot with anti-HMGB1 antibody; tRNA added, in the presence of 2 ug of 40N RNA library (comparative example)
[8] = target: TLR-2 in which His-tag was added to the N-terminus (His-tag-added TLR-2); experiment: pull-down of HMGB1 (2 ug) with His-tag-added TLR-2 (2 ug) on Co2+ agarose beads, Western blot with anti-HMGB1 antibody; lane '+': tRNA added, no RNA aptamer (reference lane, set to 100)

Chain of TLR-2 in which His-tag was added to the N-terminus (His-tag-added TLR-2) (O60603 whole entry): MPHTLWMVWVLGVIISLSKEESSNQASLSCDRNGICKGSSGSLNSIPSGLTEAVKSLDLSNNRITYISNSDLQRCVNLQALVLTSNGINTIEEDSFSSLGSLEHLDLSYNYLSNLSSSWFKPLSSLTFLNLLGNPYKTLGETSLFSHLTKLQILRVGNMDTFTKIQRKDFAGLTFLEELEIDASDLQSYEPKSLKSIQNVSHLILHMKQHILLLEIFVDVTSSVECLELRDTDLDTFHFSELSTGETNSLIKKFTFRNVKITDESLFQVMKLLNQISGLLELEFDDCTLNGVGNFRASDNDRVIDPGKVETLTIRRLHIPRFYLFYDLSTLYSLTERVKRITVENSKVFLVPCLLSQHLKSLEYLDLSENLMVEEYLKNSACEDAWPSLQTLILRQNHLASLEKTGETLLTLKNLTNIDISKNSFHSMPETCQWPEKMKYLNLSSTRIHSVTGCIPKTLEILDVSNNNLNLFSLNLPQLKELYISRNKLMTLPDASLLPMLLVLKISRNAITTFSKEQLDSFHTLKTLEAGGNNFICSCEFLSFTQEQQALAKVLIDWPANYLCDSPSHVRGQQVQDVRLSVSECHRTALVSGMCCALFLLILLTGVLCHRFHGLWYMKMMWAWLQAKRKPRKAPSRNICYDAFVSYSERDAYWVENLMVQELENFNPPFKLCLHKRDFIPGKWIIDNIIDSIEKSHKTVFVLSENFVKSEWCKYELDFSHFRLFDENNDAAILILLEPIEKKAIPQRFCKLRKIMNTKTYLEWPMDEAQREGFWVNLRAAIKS
Chain of HMGB1 protein (High-mobility group box 1 protein) (ligand) (P09429 whole entry): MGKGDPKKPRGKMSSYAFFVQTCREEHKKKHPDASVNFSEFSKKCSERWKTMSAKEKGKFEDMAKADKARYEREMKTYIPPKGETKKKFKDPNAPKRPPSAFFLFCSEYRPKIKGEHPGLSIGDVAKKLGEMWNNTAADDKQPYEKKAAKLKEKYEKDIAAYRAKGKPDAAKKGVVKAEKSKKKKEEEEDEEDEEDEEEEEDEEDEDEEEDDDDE

- HMGB1/TLR-2 (HMGB1 band corrected for TLR-2, relative to lane '+' = 100) [1]: 29
- HMGB1/TLR-2 (HMGB1 band corrected for TLR-2, relative to lane '+' = 100) [2]: 113
- HMGB1/TLR-2 (HMGB1 band corrected for TLR-2, relative to lane '+' = 100) [3]: 61
- HMGB1/TLR-2 (HMGB1 band corrected for TLR-2, relative to lane '+' = 100) [4]: 85
- HMGB1/TLR-2 (HMGB1 band corrected for TLR-2, relative to lane '+' = 100) [5]: 60
- HMGB1/TLR-2 (HMGB1 band corrected for TLR-2, relative to lane '+' = 100) [6]: 108
- HMGB1/TLR-2 (HMGB1 band corrected for TLR-2, relative to lane '+' = 100) [7]: 84
- HMGB1/TLR-2 (HMGB1 band corrected for TLR-2, relative to lane '+' = 100) [8]: 100
Substance: HMGB1 protein (High-mobility group box 1 protein) (ligand)
